Source: patent publication US20240124590A1 (ULTRAHUMAN EIGHT, published 2024)

T1: cynomolgus monkey PD1 human Fc tagged recombinant protein (cynomolgus monkey, UniProt Q15116 25-170 (human entry), limits assumed)
T1 construct: also called cyPD1-Fc; cyPD-1-Fc; not shown: human Fc tag
T1 chain: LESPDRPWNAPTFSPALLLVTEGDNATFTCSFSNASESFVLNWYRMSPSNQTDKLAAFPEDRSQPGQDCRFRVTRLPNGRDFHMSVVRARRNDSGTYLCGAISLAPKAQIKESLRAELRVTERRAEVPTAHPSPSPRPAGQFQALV

T2: cyno PD1 expressed on CHO-K1 cells (cynomolgus monkey, UniProt Q15116 25-288 (human entry))
T2 construct: also called cyno PD1+ CHO cells
T2 chain: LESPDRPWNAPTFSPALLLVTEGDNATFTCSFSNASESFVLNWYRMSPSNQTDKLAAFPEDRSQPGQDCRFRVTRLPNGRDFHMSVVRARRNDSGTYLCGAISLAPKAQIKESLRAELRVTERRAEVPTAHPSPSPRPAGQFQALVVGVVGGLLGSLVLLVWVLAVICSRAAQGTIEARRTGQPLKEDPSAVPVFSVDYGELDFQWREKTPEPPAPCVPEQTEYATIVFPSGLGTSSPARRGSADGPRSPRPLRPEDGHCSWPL

T3: human ULBP2 (UL16 binding protein 2) on transfected HEK293 cells (human, UniProt Q9BZM5 26-217)
T3 sequence: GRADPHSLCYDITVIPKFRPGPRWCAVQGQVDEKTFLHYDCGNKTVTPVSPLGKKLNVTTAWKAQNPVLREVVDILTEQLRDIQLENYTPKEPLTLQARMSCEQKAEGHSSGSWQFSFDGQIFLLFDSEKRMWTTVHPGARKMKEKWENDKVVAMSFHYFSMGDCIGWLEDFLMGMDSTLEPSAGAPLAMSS

T4: cynomolgus monkey PD1 His tag (monomeric) (cynomolgus monkey, UniProt Q15116 25-170 (human entry), limits assumed)
T4 construct: Soluble monomeric analyte; whole entry named; also called monomeric cyno PD1; not shown: His tag
T4 chain: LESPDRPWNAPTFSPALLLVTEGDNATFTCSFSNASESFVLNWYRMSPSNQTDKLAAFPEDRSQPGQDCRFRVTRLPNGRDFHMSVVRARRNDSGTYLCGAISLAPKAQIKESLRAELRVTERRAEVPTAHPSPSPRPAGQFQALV


Columns and labels:
[1] = target: T5, human PD1 human Fc tagged recombinant protein (human, UniProt Q15116 25-170, limits assumed); test: direct ELISA, Fab on coated PD1-Fc
T5 construct: also called huPD1-Fc; huPD-1-Fc; not shown: human Fc tag
T5 sequence (Q15116 25-170 limits assumed): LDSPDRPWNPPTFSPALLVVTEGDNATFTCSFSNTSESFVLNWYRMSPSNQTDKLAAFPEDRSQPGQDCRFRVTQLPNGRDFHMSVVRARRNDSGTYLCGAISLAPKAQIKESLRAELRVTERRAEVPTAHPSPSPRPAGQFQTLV
Method: (§1) Binding and cross-reactivity of the lead panel to the recombinant proteins was initially assessed by binding ELISA. The human PD1 human Fc tagged recombinant protein and the cynomolgus monkey PD1 human Fc tagged recombinant protein were coated to the surface of MaxiSorp™ flat-bottom 96 well plate at 1 μg/ml. […] The Fabs were detected using mouse anti-c-myc antibody followed by donkey anti-mouse IgG conjugated to horseradish peroxidase. The IgGs were detected using the mouse anti-human IgG conjugated to horseradish peroxidase. Binding signals were visualized with 3,3′,5,5′-Tetrannethylbenzidine Substrate Solution (TMB) and the absorbance measured at 450 nm.
(§2) The top 12 clones were also expressed as Fab protein from E. coli expression, purified to homogeneity, quantified, and applied in direct ELISA binding analyses on human PD1-Fc and cyno PD1-Fc (FIGS. 2A&B, Table 5).

[2] = target: T1, cynomolgus monkey PD1 human Fc tagged …; test: direct ELISA, Fab on coated PD1-Fc
Method: as §1, §2

[3] = target: T6, human PD1 expressed on cells (human, UniProt Q15116 25-288); test: cell-based or functional assay
T6 sequence (Q15116 25-288 limits assumed): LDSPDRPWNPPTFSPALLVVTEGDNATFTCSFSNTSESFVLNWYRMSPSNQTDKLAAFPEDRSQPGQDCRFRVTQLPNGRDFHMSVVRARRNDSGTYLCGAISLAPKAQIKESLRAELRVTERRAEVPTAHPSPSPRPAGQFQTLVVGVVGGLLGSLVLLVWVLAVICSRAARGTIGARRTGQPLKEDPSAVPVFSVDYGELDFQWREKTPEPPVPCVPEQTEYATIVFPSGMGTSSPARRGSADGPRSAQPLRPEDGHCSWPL

[4] = target: T6, human PD1 expressed on cells; test: flow cytometry, PD1 CHO-K1 cells
Method: (§3) Purified IgGs were tested in FACs for binding to human and cyno PD1 expressed on CHO-K1 stable cell lines and CHO-K1 wild-type cells. […] Binding of IgGs was detected with a mouse anti-human IgG conjugated to FITC. Results were analyzed by examining the Mean Fluorescence Intensity (MFI) of 10000 cells per sample in the BL-1 channel detector of a flow cytometer (Attune™ NxT Acoustic Focusing Cytometer, Invitrogen/ThermoFisher Scientific).
(§4) Antibodies to PD1 were analysed for concentration-dependent binding at the cell surface via flow cytometry. Initial analyses were performed on CHO cells stably-transfected with human or cyno PD1.

[5] = target: T2, cyno PD1 expressed on CHO-K1 cells; test: flow cytometry, PD1 CHO-K1 cells
Method: as §3, §4

[6] = target: T5, human PD1 human Fc tagged recombinant …; test: direct ELISA, IgG1null on coated PD1-Fc
Method: as §1
(§5) The purified IgGs described above were then tested for binding to human and cyno PD1-Fc in direct titration ELISA format. […] As the ELISA EC50 values for directly binding IgGs are strongly influenced by avidity, rather than true 1:1 binding affinity, we then proceeded to perform higher-sensitivity, solution-phase epitope competition and Biacore binding affinity determinations, as outlined below.

[7] = target: T1, cynomolgus monkey PD1 human Fc tagged …; test: direct ELISA, IgG1null on coated PD1-Fc
Method: as §1, §5

[8] = target: T7, human FZD5 (frizzled class receptor 5) on transfected HEK293 cells (human, UniProt Q13467 27-585); test: cell microarray re-array, transfected HEK293
T7 construct: also called FZDS; FZ5
T7 sequence (Q13467 27-585 limits assumed): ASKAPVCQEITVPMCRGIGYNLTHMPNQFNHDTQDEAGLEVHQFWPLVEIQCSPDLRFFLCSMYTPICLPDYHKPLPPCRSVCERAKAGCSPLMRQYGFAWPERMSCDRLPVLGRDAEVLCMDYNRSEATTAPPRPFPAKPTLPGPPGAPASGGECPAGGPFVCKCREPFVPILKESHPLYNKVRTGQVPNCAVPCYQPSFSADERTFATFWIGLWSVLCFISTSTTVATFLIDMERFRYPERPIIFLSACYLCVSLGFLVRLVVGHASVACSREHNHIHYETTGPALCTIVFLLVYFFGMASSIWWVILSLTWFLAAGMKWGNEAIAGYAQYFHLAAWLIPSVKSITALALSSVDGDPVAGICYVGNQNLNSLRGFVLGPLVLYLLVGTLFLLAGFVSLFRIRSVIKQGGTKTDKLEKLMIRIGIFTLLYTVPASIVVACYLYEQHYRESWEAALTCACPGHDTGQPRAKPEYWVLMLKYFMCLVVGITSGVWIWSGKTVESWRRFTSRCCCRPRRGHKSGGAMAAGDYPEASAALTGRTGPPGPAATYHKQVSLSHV
Method: (§6) Antibody binding was detected using AF647 fluorescent secondary anti-human IgG1 antibody. Primary hits (duplicate spots) were identified by analysing fluorescence (AF647 and ZsGreen1) on ImageQuant. Vectors encoding all hits were sequenced to confirm their correct identities. […] Slides were analysed as above. Flow cytometry confirmation screen: Expression vectors encoding ZsGreen1 only, or ZsGreen1 and PD1, FZDS, KDR or ULBP2, were transfected into human HEK293 cells. Each live transfectant was incubated with […] of each of the test antibodies and the Isotype control antibody. Cells were washed, and incubated with the same AF647 anti-human IgG Fc detection antibody as used in the cell microarray screens. Cells were again washed, and analysed by flow cytometry using an Accuri flow cytometer (BD). A 7AAD live/dead dye was used to exclude dead cells, and ZsGreen1-positive cells (i.e. transfected cells) were selected for analyses.

[9] = target: T8, human KDR (VEGFR2) on cells (human, UniProt P35968 20-1356); test: cell microarray re-array, transfected HEK293
T8 construct: Transfected HEK293 cells (arrays, flow cytometry) and human VEGFR2 reporter cells
T8 sequence (P35968 20-1356 limits assumed): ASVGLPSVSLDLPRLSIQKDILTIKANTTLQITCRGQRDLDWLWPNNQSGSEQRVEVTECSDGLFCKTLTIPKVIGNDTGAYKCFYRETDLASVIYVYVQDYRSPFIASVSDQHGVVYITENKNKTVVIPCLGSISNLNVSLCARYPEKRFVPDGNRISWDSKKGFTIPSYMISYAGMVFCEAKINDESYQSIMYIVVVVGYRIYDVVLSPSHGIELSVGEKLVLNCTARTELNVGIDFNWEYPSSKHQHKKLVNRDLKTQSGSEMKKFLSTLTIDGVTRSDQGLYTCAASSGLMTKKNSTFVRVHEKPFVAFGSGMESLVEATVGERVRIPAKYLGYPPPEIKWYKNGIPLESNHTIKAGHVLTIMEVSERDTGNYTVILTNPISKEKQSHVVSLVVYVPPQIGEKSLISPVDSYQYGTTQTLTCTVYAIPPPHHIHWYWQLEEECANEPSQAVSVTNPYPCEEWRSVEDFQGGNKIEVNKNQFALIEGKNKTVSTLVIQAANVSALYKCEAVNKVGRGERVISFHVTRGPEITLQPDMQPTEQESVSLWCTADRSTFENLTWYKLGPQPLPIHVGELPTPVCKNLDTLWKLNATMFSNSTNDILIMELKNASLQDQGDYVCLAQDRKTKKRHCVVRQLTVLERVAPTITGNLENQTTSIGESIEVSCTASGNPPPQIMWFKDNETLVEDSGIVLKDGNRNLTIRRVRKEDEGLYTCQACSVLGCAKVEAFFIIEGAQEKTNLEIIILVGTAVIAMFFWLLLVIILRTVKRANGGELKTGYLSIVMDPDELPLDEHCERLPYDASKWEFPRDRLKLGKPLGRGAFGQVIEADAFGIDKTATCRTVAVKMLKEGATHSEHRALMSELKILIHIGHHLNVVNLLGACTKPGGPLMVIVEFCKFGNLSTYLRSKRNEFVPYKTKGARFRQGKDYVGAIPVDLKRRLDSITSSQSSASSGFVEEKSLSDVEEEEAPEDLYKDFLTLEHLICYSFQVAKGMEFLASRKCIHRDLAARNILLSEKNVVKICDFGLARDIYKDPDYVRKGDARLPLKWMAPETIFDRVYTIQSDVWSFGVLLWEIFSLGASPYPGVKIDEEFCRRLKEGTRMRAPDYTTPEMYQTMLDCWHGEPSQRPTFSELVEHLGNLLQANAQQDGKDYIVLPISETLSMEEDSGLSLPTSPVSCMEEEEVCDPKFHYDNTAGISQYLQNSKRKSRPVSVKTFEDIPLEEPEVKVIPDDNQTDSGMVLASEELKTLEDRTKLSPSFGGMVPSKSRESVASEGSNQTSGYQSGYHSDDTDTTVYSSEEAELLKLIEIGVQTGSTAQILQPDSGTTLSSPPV
Method: as §6

[10] = target: T3, human ULBP2 (UL16 binding protein 2) on …; test: cell microarray re-array, transfected HEK293
Method: as §6

[11] = target: T9, biotinylated human PD1-His/AviTag (human, UniProt Q15116 25-170, limits assumed, biotinylated); test: Alphascreen competition vs IgG1-Mab005 (humanized)
T9 construct: Alphascreen antigen; whole entry named; also called biotinylated monomeric human PD1; not shown: His/AviTag
T9 sequence (Q15116 25-170 limits assumed): as the sequence (Q15116 25-170 limits assumed) above
Method: The AlphaScreen assay (Perkin Elmer) was performed in a 25 μl final volume in 384-well white microtiter plates (Greiner). The reaction buffer contained 1×PBS pH 7.3 (Oxoid, Cat. nr. BRO014G) and 0.05% (v/v) Tween® 20 (Sigma, Cat. nr. P9416). Purified IgG samples were titrated in three fold serial dilutions starting at 500 nM final concentration and incubated with biotinylated human PD1-His/AviTag at 0.6 nM final concentration for 20 minutes at room temperature. […] Followed by addition of the Streptavidin Donor beads at 20 μg/ml (final concentration) and incubation for 30 minutes at room temperature. The emission of light was measured in the EnVision multilabel plate reader (Perkin Elmer) and analysed using the EnVision manager software. Values were reported as Counts Per Second (CPS) and corrected for crosstalk.

[12] = target: T10, human PD1 His tagged (monomeric) (human, UniProt Q15116 25-170, limits assumed); test: SPR (Biacore), IgG captured, monomeric PD1-His analyte
T10 construct: Soluble monomeric analyte; whole entry named; also called monomeric human PD1; not shown: His tag
T10 sequence (Q15116 25-170 limits assumed): as above
Method: (§7) Affinity (KD) of purified IgGs was determined via SPR with antigen in-solution on a Biacore 3000 (GE). A mouse anti-human antibody (CH1 specific) was immobilized on a CM5 Sensor Chip to a level of 2000 RU in acetate buffer at pH 4.5 using amine coupling following the Wizard instructions for two channels. One channel was used for background signal correction. The standard running buffer HBS-EP pH 7.4 was used. Regeneration was performed with a single injection of 10 μl of 10 mM Glycine at pH 1.5 at 20 μl/minute. IgG samples were injected for 2 minutes at 50 nM at 30 μl/min followed by and off-rate of 60 seconds. […] The obtained sensorgrams were analysed using the Biacore 3000 evaluation (BIAevaluation) software. The KD was calculated by simultaneous fitting of the association and dissociation phases to a 1:1 Langmuir binding model.
(§8) Biacore analyses of binding affinity was performed for all IgGs to solution-phase, monomeric human and cyno PD1 proteins.

[13] = target: T4, cynomolgus monkey PD1 His tag …; test: as above
Method: as §7, §8

[14] = target: T5, human PD1 human Fc tagged recombinant …; test: direct ELISA, IgG1null on coated PD1-Fc; remark: listed apart in the source
Method: as §1, §5

[15] = target: T1, cynomolgus monkey PD1 human Fc tagged …; test: direct ELISA, IgG1null on coated PD1-Fc
Method: as §1, §5

Row | EC50 [1] [nM] | EC50 [2] [nM] | EC50 (ng/ml), IgG1null blockade of human PD1/PD-L1 [3] [ng/mL] | EC50 [4] [nM] | EC50 [5] [nM] | EC50 [6] [nM] | EC50 [7] [nM] | binding result [8] | binding result [9] | binding result [10] | IC50 [11] [nM] | Kd [12] [nM] | koff [12] [s⁻¹] | kon [12] [M⁻¹ s⁻¹] | Kd [13] [nM] | koff [13] [s⁻¹] | kon [13] [M⁻¹ s⁻¹] | EC50 [14] [nM] | EC50 [15] [nM] | Binder
1 | 0.743 | 1.01 | – | – | – | – | – | – | – | – | – | – | – | – | – | – | – | – | – | Fab06D02 (Fab, V domains shown, Human Fab from E. coli, His/c-myc tags) VH: EVQLVESGGGLVQPGGSLRLSCAASGFTFSSYLMSWVRQAPGKGLEWVATISGGGSETYYVDSVKGRFTISRDNAKNSLYLQMNSLRAEDTAVYYCARQLYGFDYWGQGTLVTVSS VL: not shown
2 | 1.25 | – | – | – | – | – | – | – | – | – | – | – | – | – | – | – | – | – | – | Fab-Mab005 (Fab, V domains shown, Purified monomeric human Fab from E. coli, His tag, detected by c-myc; also called Mab005 (humanized) Fab) VH: EVQLVESGGGLVQPGGSLRLSCAASGFTFSSYMMSWVRQAPGKGLEWVATISGGGANTYYPDSVKGRFTISRDNAKNSLYLQMNSLRAEDTAVYYCARQLYYFDYWGQGTTVTVSS VL: DIQMTQSPSSLSASVGDRVTITCLASQTIGTWLTWYQQKPGKAPKLLIYTATSLADGVPSRFSGSGSGTDFTLTISSLQPEDFATYYCQQVYSIPWTFGGGTKVEIK
3 | – | – | 188 | 1.95 | 2.17 | – | – | – | – | – | 4.01 | 1.6 | 0.00032 | 200000 | 4.7 | 0.00064 | 140000 | 0.112 | 0.12 | IgG1-12H04 (antibody, V domains shown, Library-derived; human IgG1null + Ckappa) VH: EVQLVESGGGLVQPGGSLRLSCAASGFTFSSYLMSWVRQAPGKGLEWVATISGGGAEKYYVDSVKGRFTISRDNAKNSLYLQMNSLRAEDTAVYYCARQLYGFDYWGQGTLVTVSS VL: not shown

More lines, now with the values behind:

Row | Binder | EC50 [1] [nM] | EC50 [2] [nM] | EC50 (ng/ml), IgG1null blockade of human PD1/PD-L1 [3] [ng/mL] | EC50 [4] [nM] | EC50 [5] [nM] | EC50 [6] [nM] | EC50 [7] [nM] | binding result [8] | binding result [9] | binding result [10] | IC50 [11] [nM] | Kd [12] [nM] | koff [12] [s⁻¹] | kon [12] [M⁻¹ s⁻¹] | Kd [13] [nM] | koff [13] [s⁻¹] | kon [13] [M⁻¹ s⁻¹] | EC50 [14] [nM] | EC50 [15] [nM]
4 | Fab12H04 (Fab, V domains shown, Human Fab from E. coli, His/c-myc tags) VH: EVQLVESGGGLVQPGGSLRLSCAASGFTFSSYLMSWVRQAPGKGLEWVATISGGGAEKYYVDSVKGRFTISRDNAKNSLYLQMNSLRAEDTAVYYCARQLYGFDYWGQGTLVTVSS VL: not shown | 0.708 | 1.4 | – | – | – | – | – | – | – | – | – | – | – | – | – | – | – | – | –
5 | IgG1-14 (antibody, V domains shown, Designer; human IgG1null + Ckappa; also called Antibody IgG1-14) VH: EVQLVESGGGLVQPGGSLRLSCAASGFTFSSYLMSWVRQAPGKGLEWVATISGGGSEKYYVDSVKGRFTISRDNAKNSLYLQMNSLRAEDTAVYYCARQLYAFDYWGQGTLVTVSS VL: not shown | – | – | 212 | 1.87 | 1.33 | 0.125 | 0.0959 | no binding (tested: 5 µg/ml) | no binding (tested: 5 µg/ml) | no binding (tested: 5 µg/ml) | 3 | 2.57 | 0.00046 | 180000 | 6.9 | 0.00097 | 140000 | – | –
6 | IgG1-11 (antibody, V domains shown, Designer; human IgG1null + Ckappa; also called Antibody IgG1-11) VH: EVQLVESGGGLVQPGGSLRLSCAASGFTFSSYLMSWVRQAPGKGLEWVATISGGGSEKYYVDSVKGRFTISRDNAKNSLYLQMNSLRAEDTAVYYCARQLYFFDYWGQGTLVTVSS VL: not shown | – | – | 172 | 0.978 | 0.861 | 0.0492 | 0.0498 | no binding (tested: 5 µg/ml) | no binding (tested: 5 µg/ml) | no binding (tested: 5 µg/ml) | 1.41 | 3.01 | 0.0004 | 130000 | 7.1 | 0.00073 | 100000 | – | –
